The text below walks through data of patent US20140363428A1 (Chugai, published 2014).

First the molecules themselves.
B1: IgG1-F1126 (antibody)
heavy: QVQLQESGPGLVKPSETLSLTCAVSGHSISHDHAWSWVRQPPGEGLEWIGFISYSGITNYNPSLQGRVTISRDNSKNTLYLQMNSLRAEDTAVYYCARSLARTTAMDYWGEGTLVTVSSASTKGPSVFPLAPSSKSTSGGTAALGCLVKDYFPEPVTVSWNSGALTSGVHTFPAVLQSSGLYSLSSVVTVPSSSLGTQTYICNVNHKPSNTKVDKKVEPKSCDKTHTCPPCPAPELLGGPSVFLFPPKPKDTLYISRTPEVTCVVVDVSHEDPEVKFNWYVDGVEVHNAKTKPREEQYNSTYRVVSVLAVLHQDWLNGKEYKCKVSNKALPAPIEKTISKAKGQPREPQVYTLPPSRDELTKNQVSLTCLVKGFYPSDIAVEWESNGQPENNYKTTPPVLDSDGSFFLYSKLTVDKSRWQQGNVFSCSVMHEALHYHVTQKSLSLSP
light: not shown
notes: VH3-IgG1 with Fc substitutions (EU numbering) + L(WT)-CK
B2: IgG1-F1133 (antibody)
heavy: QVQLQESGPGLVKPSETLSLTCAVSGHSISHDHAWSWVRQPPGEGLEWIGFISYSGITNYNPSLQGRVTISRDNSKNTLYLQMNSLRAEDTAVYYCARSLARTTAMDYWGEGTLVTVSSASTKGPSVFPLAPSSKSTSGGTAALGCLVKDYFPEPVTVSWNSGALTSGVHTFPAVLQSSGLYSLSSVVTVPSSSLGTQTYICNVNHKPSNTKVDKKVEPKSCDKTHTCPPCPAPELRGGPKVFLFPPKPKDTLYISRTPEVTCVVVDVSHEDPEVKFNWYVDGVEVHNAKTKPREEQYNSTYRVVSVLTVLHQDWLNGKEYKCKVSNKALPAPIEKTISKAKGQPREPQVYTLPPSRDELTKNQVSLTCLVKGFYPSDIAVEWESNGQPENNYKTTPPVLDSDGSFFLYSKLTVDKSRWQQGNVFRCSVMHEALHYHVTQKSLSLSP
light: not shown
notes: as for B1
B3: IgG1-F1130 (antibody)
heavy: QVQLQESGPGLVKPSETLSLTCAVSGHSISHDHAWSWVRQPPGEGLEWIGFISYSGITNYNPSLQGRVTISRDNSKNTLYLQMNSLRAEDTAVYYCARSLARTTAMDYWGEGTLVTVSSASTKGPSVFPLAPSSKSTSGGTAALGCLVKDYFPEPVTVSWNSGALTSGVHTFPAVLQSSGLYSLSSVVTVPSSSLGTQTYICNVNHKPSNTKVDKKVEPKSCDKTHTCPPCPAPELLGGPSVFLFPPKPKDTLYISRTPEVTCVVVDVSHEDPEVKFNWYVDGVEVHNAKTKPREEQYNSTYRVVSVLAVLHADWLNGKEYKCKVSNKALPAPIEKTISKAKGQPREPQVYTLPPSRDELTKNQVSLTCLVKGFYPSDIAVEWESNGQPENNYKTTPPVLDSDGSFFLYSKLTVDKSRWQQGNVFSCSVMHEALHYHVTQKSLSLSP
light: not shown
notes: as for B1
B4: IgG1-F1131 (antibody)
heavy: QVQLQESGPGLVKPSETLSLTCAVSGHSISHDHAWSWVRQPPGEGLEWIGFISYSGITNYNPSLQGRVTISRDNSKNTLYLQMNSLRAEDTAVYYCARSLARTTAMDYWGEGTLVTVSSASTKGPSVFPLAPSSKSTSGGTAALGCLVKDYFPEPVTVSWNSGALTSGVHTFPAVLQSSGLYSLSSVVTVPSSSLGTQTYICNVNHKPSNTKVDKKVEPKSCDKTHTCPPCPAPELRGGPKVFLFPPKPKDTLYISRTPEVTCVVVDVSHEDPEVKFNWYVDGVEVHNAKTKPREEQYNSTYRVVSVLTVLHQDWLNGKEYKCKVSNKALPAPIEKTISKAKGQPREPQVYTLPPSRDELTKNQVSLTCLVKGFYPSDIAVEWESNGQPENNYKTTPPVLDSDGSFFLYSKLTVDKSRWQQGNEFSCSVMHEALHYHVTQKSLSLSP
light: not shown
notes: as for B1
B5: IgG1-F1128 (antibody)
heavy: QVQLQESGPGLVKPSETLSLTCAVSGHSISHDHAWSWVRQPPGEGLEWIGFISYSGITNYNPSLQGRVTISRDNSKNTLYLQMNSLRAEDTAVYYCARSLARTTAMDYWGEGTLVTVSSASTKGPSVFPLAPSSKSTSGGTAALGCLVKDYFPEPVTVSWNSGALTSGVHTFPAVLQSSGLYSLSSVVTVPSSSLGTQTYICNVNHKPSNTKVDKKVEPKSCDKTHTCPPCPAPELLGGPSVFLFPPKPKDTLYISRTPEVTCVVVDVSHEDPEVKFNWYVDGVEVHNAKTKPREEQYNSTYRVVSVLTVLHHDWLNGKEYKCKVSNKALPAPIEKTISKAKGQPREPQVYTLPPSRDELTKNQVSLTCLVKGFYPSDIAVEWESNGQPENNYKTTPPVLDSDGSFFLYSKLTVDKSRWQQGNVFSCSVMHEALHYHVTQKSLSLSP
light: not shown
notes: as for B1
B6: IgG1-F1135 (antibody)
heavy: QVQLQESGPGLVKPSETLSLTCAVSGHSISHDHAWSWVRQPPGEGLEWIGFISYSGITNYNPSLQGRVTISRDNSKNTLYLQMNSLRAEDTAVYYCARSLARTTAMDYWGEGTLVTVSSASTKGPSVFPLAPSSKSTSGGTAALGCLVKDYFPEPVTVSWNSGALTSGVHTFPAVLQSSGLYSLSSVVTVPSSSLGTQTYICNVNHKPSNTKVDKKVEPKSCDKTHTCPPCPAPELRGGPKVFLFPPKPKDTLYISRTPEVTCVVVDVSHEDPEVKFNWYVDGVEVHNAKTKPREEQYNSTYRVVSVLTVLHQDWLNGKEYKCKVSNKALPAPIEKTISKAKGQPREPQVYTLPPSRDELTKNQVSLTCLVKGFYPSDIAVEWESNGQPENNYKTTPPVLDSDGSFFLYSKLTVDKSRWQQGNVFSCSVMHEALHYHVTQKELSLSP
light: not shown
notes: as for B1
B7: IgG1-F1129 (antibody)
heavy: QVQLQESGPGLVKPSETLSLTCAVSGHSISHDHAWSWVRQPPGEGLEWIGFISYSGITNYNPSLQGRVTISRDNSKNTLYLQMNSLRAEDTAVYYCARSLARTTAMDYWGEGTLVTVSSASTKGPSVFPLAPSSKSTSGGTAALGCLVKDYFPEPVTVSWNSGALTSGVHTFPAVLQSSGLYSLSSVVTVPSSSLGTQTYICNVNHKPSNTKVDKKVEPKSCDKTHTCPPCPAPELLGGPSVFLFPPKPKDTLYISRTPEVTCVVVDVSHEDPEVKFNWYVDGVEVHNAKTKPREEQYNSTYRVVSVLQVLHHDWLNGKEYKCKVSNKALPAPIEKTISKAKGQPREPQVYTLPPSRDELTKNQVSLTCLVKGFYPSDIAVEWESNGQPENNYKTTPPVLDSDGSFFLYSKLTVDKSRWQQGNVFSCSVMHEALHYHVTQKSLSLSP
light: not shown
notes: as for B1
B8: IgG1-F1134 (antibody)
heavy: QVQLQESGPGLVKPSETLSLTCAVSGHSISHDHAWSWVRQPPGEGLEWIGFISYSGITNYNPSLQGRVTISRDNSKNTLYLQMNSLRAEDTAVYYCARSLARTTAMDYWGEGTLVTVSSASTKGPSVFPLAPSSKSTSGGTAALGCLVKDYFPEPVTVSWNSGALTSGVHTFPAVLQSSGLYSLSSVVTVPSSSLGTQTYICNVNHKPSNTKVDKKVEPKSCDKTHTCPPCPAPELRGGPKVFLFPPKPKDTLYISRTPEVTCVVVDVSHEDPEVKFNWYVDGVEVHNAKTKPREEQYNSTYRVVSVLTVLHQDWLNGKEYKCKVSNKALPAPIEKTISKAKGQPREPQVYTLPPSRDELTKNQVSLTCLVKGFYPSDIAVEWESNGQPENNYKTTPPVLDSDGSFFLYSKLTVDKSRWQQGNVFSCSVMHEALHYHVTRKSLSLSP
light: not shown
notes: as for B1
B9: IgG1-F1127 (antibody)
heavy: QVQLQESGPGLVKPSETLSLTCAVSGHSISHDHAWSWVRQPPGEGLEWIGFISYSGITNYNPSLQGRVTISRDNSKNTLYLQMNSLRAEDTAVYYCARSLARTTAMDYWGEGTLVTVSSASTKGPSVFPLAPSSKSTSGGTAALGCLVKDYFPEPVTVSWNSGALTSGVHTFPAVLQSSGLYSLSSVVTVPSSSLGTQTYICNVNHKPSNTKVDKKVEPKSCDKTHTCPPCPAPELLGGPSVFLFPPKPKDTLYISRTPEVTCVVVDVSHEDPEVKFNWYVDGVEVHNAKTKPREEQYNSTYRVVSVLTVLHADWLNGKEYKCKVSNKALPAPIEKTISKAKGQPREPQVYTLPPSRDELTKNQVSLTCLVKGFYPSDIAVEWESNGQPENNYKTTPPVLDSDGSFFLYSKLTVDKSRWQQGNVFSCSVMHEALHYHVTQKSLSLSP
light: not shown
notes: as for B1
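Also: KD derived from kinetic ka and kd fits of sensorgrams, CM4 sensor chip, sodium phosphate NaCl Tween20 running buffer, buffer-only injection used as reference.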

This assay deals with T1, soluble human FcRn (heterodimer of FcRn alpha chain and beta2-microglobulin) (human, UniProt P55899 24-297; P61769 21-119).
T1 construct: Expressed in HEK293H and purified on IgG Sepharose; also called hFcRn
T1 sequence (P55899 24-297 limits assumed, chain 1 of 2): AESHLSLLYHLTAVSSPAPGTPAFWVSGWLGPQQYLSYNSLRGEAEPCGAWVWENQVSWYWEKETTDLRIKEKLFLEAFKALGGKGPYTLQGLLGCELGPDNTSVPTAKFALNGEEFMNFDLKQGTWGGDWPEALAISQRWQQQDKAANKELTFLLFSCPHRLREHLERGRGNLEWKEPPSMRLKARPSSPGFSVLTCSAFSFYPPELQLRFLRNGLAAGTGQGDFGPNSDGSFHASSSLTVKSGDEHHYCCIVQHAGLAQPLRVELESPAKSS
T1 sequence (P61769 21-119 limits assumed, chain 2 of 2): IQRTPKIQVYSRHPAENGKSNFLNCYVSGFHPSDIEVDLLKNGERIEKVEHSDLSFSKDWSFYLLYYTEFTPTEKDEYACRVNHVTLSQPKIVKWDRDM
Kind of assay: SPR Biacore T100, antibody captured via protein L, hFcRn analyte, pH 7.0, 25 C. (In general: SPR reads the build-up and loss of mass on a sensor chip optically.)
Description: An appropriate amount of protein L (ACTIGEN) was immobilized onto Sensor chip CM4 (GE Healthcare) by the amino coupling method, and the chip was allowed to capture an antibody of interest. Then, diluted FcRn solutions and running buffer (as a reference solution) were injected to allow human FcRn to interact with the antibody captured on the sensor chip. The running buffer used comprised 50 mmol/l sodium phosphate, 150 mmol/l NaCl, and 0.05% (w/v) Tween20 (pH 7.0). FcRn was diluted using each buffer. The chip was regenerated using 10 mmol/l glycine-HCl (pH 1.5). Assays were carried out exclusively at 25 degrees C. The association rate constant ka (1/Ms) and dissociation rate constant kd (1/s), both of which are kinetic parameters, were calculated based on the sensorgrams obtained in the assays, and KD (M) of each antibody for human FcRn was determined from these values. Each parameter was calculated using Biacore T100 Evaluation Software (GE Healthcare).
By Kd is commonly meant the concentration at which binding is half-saturated. A higher Kd goes with a looser complex. In the case of B1, binding was characterised by a dissociation constant (Kd) of 90 nM. The molecule B2 yielded an equilibrium dissociation constant (Kd) of 160 nM. In the case of B3 it was 55 nM; in that of B4, 130 nM.

Consider B5, for which the affinity, expressed as Kd, was 120 nM. B6 returned a dissociation constant (Kd) of 130 nM. B7 registered a dissociation constant Kd of 45 nM. Compared with the last molecule, the Kd is about 2.9-fold lower. As for B8, the equilibrium dissociation constant (Kd) was determined as 170 nM. On to B9, for which the Kd was determined as 79 nM.
